For the data set, the system named is Escherichia coli TOP10. The experiment in a line: shrunken log2 fold change of peptide-encoding DNA abundance (4.5 h post-induction vs induction); higher = less antimicrobial activity (less host growth inhibition). The settings on record: time post-induction: 4.5 h; library: site-saturation at positions 5, 18, 19, 20.
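Further: peptides expressed intracellularly from a pBAD plasmid library in pooled LB shake-flask culture, induced with 0.3% L-arabinose, DNA abundance read by NGS, three biological replicates, DESeq2 with apeglm shrinkage.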

On to RRIRIRPPRLPRPRPRPFTLPRP, for which the “shrunken log2 fold change” value turned out to be 0.0488. As to RRIRGRPPRLPRPRPRPISVPRP, the “shrunken log2 fold change” value was -0.0351. Turning to RRIRYRPPRLPRPRPRPANNPRP, the “shrunken log2 fold change” value is -0.45. With RRIRKRPPRLPRPRPRPMDQPRP, the “shrunken log2 fold change” value was 0.0935. As to RRIRHRPPRLPRPRPRPAVVPRP, the “shrunken log2 fold change” value is -0.182. For RRIRKRPPRLPRPRPRPLSSPRP, the “shrunken log2 fold change” value is 0.115. On to RRIRWRPPRLPRPRPRPRQEPRP, for which the “shrunken log2 fold change” value was 0.0591. Take RRIRVRPPRLPRPRPRPKFCPRP: the “shrunken log2 fold change” value was -0.137. Take RRIRFRPPRLPRPRPRPFQFPRP: the “shrunken log2 fold change” value is -0.253.

For the sequence RRIRWRPPRLPRPRPRPFSVPRP, the “shrunken log2 fold change” value is -0.159.

Regarding RRIRNRPPRLPRPRPRPLPLPRP, the “shrunken log2 fold change” value is 0.187. As for RRIRERPPRLPRPRPRPSACPRP, the “shrunken log2 fold change” value is 0.0132.

In the case of RRIRWRPPRLPRPRPRPGTAPRP, the “shrunken log2 fold change” value stood at 0.392. On to RRIRCRPPRLPRPRPRPWIMPRP, for which the “shrunken log2 fold change” value was -0.275. As for RRIRWRPPRLPRPRPRPSAKPRP, the “shrunken log2 fold change” value worked out at 0.833.

Turning to RRIRHRPPRLPRPRPRPLLWPRP, the “shrunken log2 fold change” value was determined as 0.0832. As to RRIRCRPPRLPRPRPRPWAFPRP, the “shrunken log2 fold change” value is -0.0432. Turning to RRIRARPPRLPRPRPRPGMDPRP, the “shrunken log2 fold change” value came to 0.543. As to RRIRMRPPRLPRPRPRPLQHPRP, the “shrunken log2 fold change” value was 1.47. As for RRIRNRPPRLPRPRPRPDRLPRP, the figure is -0.038; as for RRIRARPPRLPRPRPRPDVQPRP, 0.474; as for RRIRHRPPRLPRPRPRPEKRPRP, -0.01. In the case of RRIRVRPPRLPRPRPRPLQFPRP it was -0.149; in that of RRIRIRPPRLPRPRPRPYREPRP, -0.0673; in that of RRIRGRPPRLPRPRPRPAFGPRP, 0.476. Regarding RRIRNRPPRLPRPRPRPLYIPRP, the “shrunken log2 fold change” value is -0.826. In the case of RRIRQRPPRLPRPRPRPFKYPRP it was -0.0224; in that of RRIRPRPPRLPRPRPRPNALPRP, 0.0933; in that of RRIRCRPPRLPRPRPRPPYNPRP, -0.618. In the case of RRIRGRPPRLPRPRPRPKAGPRP, the “shrunken log2 fold change” value came out at 1.17. On to RRIRLRPPRLPRPRPRPDTVPRP, for which the “shrunken log2 fold change” value is -0.399. Turning to RRIRNRPPRLPRPRPRPQNIPRP, the “shrunken log2 fold change” value is -0.263. For RRIRSRPPRLPRPRPRPDMTPRP, the “shrunken log2 fold change” value was 0.154. For the sequence RRIRERPPRLPRPRPRPHIDPRP, the “shrunken log2 fold change” value is -0.34. For RRIRMRPPRLPRPRPRPGLDPRP, the “shrunken log2 fold change” value amounted to 2.44.

Regarding RRIRNRPPRLPRPRPRPHPKPRP, the “shrunken log2 fold change” value turned out to be 0.187. As for RRIRKRPPRLPRPRPRPTRAPRP, the figure is 1.2. Regarding RRIRSRPPRLPRPRPRPLLPPRP, the “shrunken log2 fold change” value worked out at 0.405.

As to RRIRFRPPRLPRPRPRPNFIPRP, the “shrunken log2 fold change” value was -0.308. As for RRIRPRPPRLPRPRPRPFQLPRP, the figure is -0.0657; as for RRIRFRPPRLPRPRPRPKVVPRP, 0.291. For RRIRCRPPRLPRPRPRPKERPRP, the “shrunken log2 fold change” value was determined as 0.238. As to RRIRNRPPRLPRPRPRPYSRPRP, the “shrunken log2 fold change” value was -0.00947.

Take RRIRGRPPRLPRPRPRPYLKPRP: the “shrunken log2 fold change” value was -0.0688. For RRIRWRPPRLPRPRPRPTNIPRP, the “shrunken log2 fold change” value was -0.509. On to RRIRSRPPRLPRPRPRPMPEPRP, for which the “shrunken log2 fold change” value came to 0.376. In the case of RRIRKRPPRLPRPRPRPDSWPRP it was 0.0425; in that of RRIRKRPPRLPRPRPRPHWSPRP, 0.139; in that of RRIRMRPPRLPRPRPRPGRTPRP, 0.894.

As to RRIRGRPPRLPRPRPRPMPSPRP, the “shrunken log2 fold change” value is 0.431. As for RRIRDRPPRLPRPRPRPAVHPRP, the figure is 0.16; as for RRIRTRPPRLPRPRPRPTLQPRP, 0.336; as for RRIRRRPPRLPRPRPRPFWEPRP, -0.0438.

On to RRIRHRPPRLPRPRPRPWHTPRP, for which the “shrunken log2 fold change” value is -0.566. For RRIRQRPPRLPRPRPRPMFTPRP, the “shrunken log2 fold change” value is -0.31. In the case of RRIRNRPPRLPRPRPRPDWNPRP, the “shrunken log2 fold change” value was -0.212. Regarding RRIRVRPPRLPRPRPRPPVYPRP, the “shrunken log2 fold change” value is -0.329. For the sequence RRIRIRPPRLPRPRPRPHVPPRP, the “shrunken log2 fold change” value was -0.00519. As to RRIRARPPRLPRPRPRPLWPPRP, the “shrunken log2 fold change” value is 0.646. In the case of RRIRFRPPRLPRPRPRPWLMPRP it was -0.58; in that of RRIRMRPPRLPRPRPRPEVPPRP, 1.33; in that of RRIRQRPPRLPRPRPRPECDPRP, 0.0401. In the case of RRIRYRPPRLPRPRPRPSVMPRP it was -0.194; in that of RRIRNRPPRLPRPRPRPVCYPRP, -0.21. As for RRIRLRPPRLPRPRPRPEGGPRP, the figure is 0.0449; as for RRIRKRPPRLPRPRPRPMSDPRP, 0.364. With RRIRCRPPRLPRPRPRPDNQPRP, the “shrunken log2 fold change” value was -0.696. For the sequence RRIRIRPPRLPRPRPRPWWAPRP, the “shrunken log2 fold change” value was -0.255. In the case of RRIRRRPPRLPRPRPRPRIDPRP it was -0.0185; in that of RRIRIRPPRLPRPRPRPSAGPRP, -0.334; in that of RRIRVRPPRLPRPRPRPINSPRP, -0.022. As for RRIRYRPPRLPRPRPRPDCNPRP, the “shrunken log2 fold change” value was -0.871. As for RRIRFRPPRLPRPRPRPDSAPRP, the figure is -0.102. As for RRIRSRPPRLPRPRPRPHQMPRP, the figure is -0.207; as for RRIRARPPRLPRPRPRPFGDPRP, 0.483. RRIRLRPPRLPRPRPRPIPCPRP: the “shrunken log2 fold change” value is -0.00241.

Take RRIRERPPRLPRPRPRPYLGPRP: the “shrunken log2 fold change” value is -0.12. As for RRIRVRPPRLPRPRPRPDMGPRP, the “shrunken log2 fold change” value is -0.0133. Turning to RRIRQRPPRLPRPRPRPAYAPRP, the “shrunken log2 fold change” value is -0.189.

For RRIRARPPRLPRPRPRPKYCPRP, the “shrunken log2 fold change” value is -0.464.

For RRIRNRPPRLPRPRPRPRWSPRP, the “shrunken log2 fold change” value is -0.054. Take RRIRPRPPRLPRPRPRPATNPRP: the “shrunken log2 fold change” value was -0.105. For RRIRWRPPRLPRPRPRPGMQPRP, the “shrunken log2 fold change” value was found to be 0.775.

For RRIRWRPPRLPRPRPRPMQHPRP, the “shrunken log2 fold change” value is 0.596.

With RRIRSRPPRLPRPRPRPWCCPRP, the “shrunken log2 fold change” value was -0.544.

For the sequence RRIRGRPPRLPRPRPRPHLMPRP, the “shrunken log2 fold change” value is -0.0148. In the case of RRIRGRPPRLPRPRPRPPYEPRP it was 0.0264; in that of RRIRRRPPRLPRPRPRPITSPRP, -0.00199; in that of RRIRVRPPRLPRPRPRPLERPRP, -0.0607. In the case of RRIRGRPPRLPRPRPRPYMAPRP, the “shrunken log2 fold change” value was -0.388. Take RRIRYRPPRLPRPRPRPHACPRP: the “shrunken log2 fold change” value amounted to 0.0039. As for RRIRDRPPRLPRPRPRPAHYPRP, the “shrunken log2 fold change” value was 0.0963. As for RRIRLRPPRLPRPRPRPWFYPRP, the figure is -0.785; as for RRIRCRPPRLPRPRPRPSRKPRP, -0.227; as for RRIRTRPPRLPRPRPRPCCWPRP, 0.0822. As for RRIRLRPPRLPRPRPRPSVHPRP, the figure is -0.61; as for RRIRARPPRLPRPRPRPELLPRP, 0.961. In the case of RRIRYRPPRLPRPRPRPMQHPRP it was -0.17; in that of RRIRPRPPRLPRPRPRPLTYPRP, -0.0089; in that of RRIRDRPPRLPRPRPRPPDSPRP, 0.0832. As for RRIRYRPPRLPRPRPRPSKHPRP, the “shrunken log2 fold change” value is -0.786. RRIRVRPPRLPRPRPRPEANPRP: the “shrunken log2 fold change” value is -0.141. In the case of RRIRYRPPRLPRPRPRPHPEPRP it was 0.037; in that of RRIRVRPPRLPRPRPRPHGGPRP, -0.0243; in that of RRIRERPPRLPRPRPRPTQEPRP, 0.0237. RRIRHRPPRLPRPRPRPQEYPRP: the “shrunken log2 fold change” value is -0.128. Regarding RRIRARPPRLPRPRPRPQYTPRP, the “shrunken log2 fold change” value is -0.496. On to RRIRSRPPRLPRPRPRPAVVPRP, for which the “shrunken log2 fold change” value is -0.0261. For the sequence RRIRSRPPRLPRPRPRPAPGPRP, the “shrunken log2 fold change” value is 0.54.

For the sequence RRIRARPPRLPRPRPRPMITPRP, the “shrunken log2 fold change” value came to 0.312.

As to RRIRLRPPRLPRPRPRPAPSPRP, the “shrunken log2 fold change” value turned out to be 0.163. Turning to RRIRIRPPRLPRPRPRPMDCPRP, the “shrunken log2 fold change” value was -0.115. In the case of RRIRYRPPRLPRPRPRPQAQPRP, the “shrunken log2 fold change” value came out at 0.0442. In the case of RRIRFRPPRLPRPRPRPMGQPRP it was -0.0471; in that of RRIRVRPPRLPRPRPRPVFHPRP, -0.213; in that of RRIRDRPPRLPRPRPRPDFSPRP, 0.0345. On to RRIRPRPPRLPRPRPRPMILPRP, for which the “shrunken log2 fold change” value is -0.064. In the case of RRIRCRPPRLPRPRPRPPCAPRP it was 0.354; in that of RRIRIRPPRLPRPRPRPIMSPRP, 0.0262; in that of RRIRHRPPRLPRPRPRPVCVPRP, -0.216. In the case of RRIRQRPPRLPRPRPRPRLDPRP it was 0.205. As for RRIRCRPPRLPRPRPRPRDDPRP, the “shrunken log2 fold change” value was 0.274. In the case of RRIRDRPPRLPRPRPRPFMEPRP, the “shrunken log2 fold change” value was -0.148.

Regarding RRIRWRPPRLPRPRPRPPMDPRP, the “shrunken log2 fold change” value was found to be 0.0637. For RRIRGRPPRLPRPRPRPPRGPRP, the “shrunken log2 fold change” value amounted to 0.938.

These data come from the supplement of paper PMC9112550, “Optimization of the antimicrobial peptide Bac7 by deep mutational scanning” (BMC Biology, 2022).
